According to patent US20130177572A1:

Assays:
[1] = target: human PDGFR-hIgG1-Fc chimeric fusion protein (human) (UniProt P09619); assay: SPR (Biacore T100), PDGFR-Fc captured by anti-hIgG1 Fc, 1:1 model
[2] = target: human PDGFRβ (human) (UniProt P09619); assay: solution equilibrium binding: 35S-Met labelled in vitro translated protein, human PDGFRβ titrated (0 to 20 nM), capture on protein A beads, scintillation counts
Chain of human PDGFRβ (human) (P09619 33-530 limits assumed): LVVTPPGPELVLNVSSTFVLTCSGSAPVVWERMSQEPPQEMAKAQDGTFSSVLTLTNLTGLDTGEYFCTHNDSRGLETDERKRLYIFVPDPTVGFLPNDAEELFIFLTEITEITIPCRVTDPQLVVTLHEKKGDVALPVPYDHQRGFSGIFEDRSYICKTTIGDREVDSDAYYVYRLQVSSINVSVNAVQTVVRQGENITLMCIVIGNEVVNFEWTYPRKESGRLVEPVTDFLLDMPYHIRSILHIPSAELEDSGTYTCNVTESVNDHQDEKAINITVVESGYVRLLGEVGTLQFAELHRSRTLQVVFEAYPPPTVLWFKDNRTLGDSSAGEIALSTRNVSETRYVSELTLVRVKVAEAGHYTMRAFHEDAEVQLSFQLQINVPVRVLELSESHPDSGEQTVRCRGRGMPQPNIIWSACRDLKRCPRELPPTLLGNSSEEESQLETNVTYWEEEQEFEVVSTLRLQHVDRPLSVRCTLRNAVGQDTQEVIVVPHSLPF

Chain of human PDGFR-hIgG1-Fc chimeric fusion protein (human) (P09619 33-530 limits assumed, stated change not applied): as the sequence (P09619 33-530 limits assumed) above

B1: XB2202/A4 scFv (scFv, part only; not given: Linker, domain order and tag, V domains shown, not shown: another chain or arm of the molecule; small tags and cut ends)
VH: QVQLVQSGAEVKKPGSSVRVSCKASGGTFSRHAISWVRQAPGQGLEWIGGILPILKTPNYAQRFQGRVTINADESTSTVYMEMSSLRSEDTAVYYCATHGGDRSYWGQGTLVTVSS
VL: DVVMTQSPSSLSASVGDRVTITCQASQDISNWLNWYQQKPGKAPKLLIYEASNLETGVPSRFSGSGSGTDFTFTISSLQPEDIATYYCQQYNNVLRTFGQGTKVEIK
B1 was tested, and the Kd [1] was 2.18 nM, the koff [1] was 0.00154 s⁻¹ and the kon [1] was 706000 M⁻¹ s⁻¹. It also gave a Kd [2] of 0.03 nM.
